These results are taken from article doi:10.1101/2020.09.29.317933 (bioRxiv, 2020).

Data set [1] concerns the target T1, lamin A/C 250-400 fragment (C-terminal part of coil 2), wild type, tag-free (human, UniProt P02545 250-400).
T1 sequence (looked up): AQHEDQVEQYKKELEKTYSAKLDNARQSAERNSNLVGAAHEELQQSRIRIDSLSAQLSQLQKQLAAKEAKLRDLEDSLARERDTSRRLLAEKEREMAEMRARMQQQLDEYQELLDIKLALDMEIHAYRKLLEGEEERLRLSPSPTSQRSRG
Description: pull-down.

The target in data set [2] is T2, His-tagged lamin A/C 250-400 fragment, L362C (human, UniProt P02545 250-400, L362C).
T2 sequence (looked up): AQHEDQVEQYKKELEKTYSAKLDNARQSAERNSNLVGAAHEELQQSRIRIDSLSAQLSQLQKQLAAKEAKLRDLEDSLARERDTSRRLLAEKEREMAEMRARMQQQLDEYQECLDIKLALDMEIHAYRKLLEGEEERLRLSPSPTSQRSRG
Description: pull-down.

Data set [3] has as its target T3, His-tagged lamin A/C 250-400 fragment, wild type (human, UniProt P02545 250-400).
T3 sequence (looked up): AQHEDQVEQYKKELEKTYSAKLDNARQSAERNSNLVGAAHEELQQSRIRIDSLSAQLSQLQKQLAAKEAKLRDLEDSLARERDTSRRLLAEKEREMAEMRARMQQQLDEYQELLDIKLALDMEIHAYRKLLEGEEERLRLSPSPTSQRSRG
Put plainly: pull-down.

Data set [4] addresses T4, lamin A/C 250-400 fragment, Y267C, tag-free (human, UniProt P02545 250-400, Y267C).
T4 sequence (looked up): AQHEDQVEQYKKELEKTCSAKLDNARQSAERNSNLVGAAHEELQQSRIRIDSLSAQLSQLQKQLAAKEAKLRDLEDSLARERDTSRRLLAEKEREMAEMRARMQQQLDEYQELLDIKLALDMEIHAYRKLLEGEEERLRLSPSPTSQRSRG
Put plainly: pull-down.

The target in data set [5] is T5, lamin A/C 250-400 fragment, K316C, tag-free (human, UniProt P02545 250-400, K316C).
T5 sequence (looked up): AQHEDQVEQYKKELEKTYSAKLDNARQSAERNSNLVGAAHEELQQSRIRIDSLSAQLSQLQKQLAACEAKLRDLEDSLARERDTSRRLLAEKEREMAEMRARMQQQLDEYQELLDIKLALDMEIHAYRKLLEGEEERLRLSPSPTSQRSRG
Description: pull-down.

Data set [6] deals with the molecule itself.

B1: His-tagged lamin A/C 1-125 fragment, I63S (domain or fragment, human, UniProt P02545 1-125, looked up)
chain: METPSQRRATRSGAQASSTPLSPTRITRLQEKEDLQELNDRLAVYIDRVRSLETENAGLRLRSTESEEVVSREVSGIKAAYEAELGDARKTLDSVAKERARLQLELSKVREEFKELKARNTKKEG
B1: the binding result in data set [1] is on record as “binds”.

B2: lamin A/C 1-125 fragment, wild type, prey of Fig. 6B (domain or fragment, human, UniProt P02545 1-125, looked up)
chain: METPSQRRATRSGAQASSTPLSPTRITRLQEKEDLQELNDRLAVYIDRVRSLETENAGLRLRITESEEVVSREVSGIKAAYEAELGDARKTLDSVAKERARLQLELSKVREEFKELKARNTKKEG
With B2, the binding result in data set [2] and in data set [3] was “binds” in each case.

B3: His-tagged lamin A/C 1-125 fragment, Y45C (domain or fragment, human, UniProt P02545 1-125, looked up)
chain: METPSQRRATRSGAQASSTPLSPTRITRLQEKEDLQELNDRLAVCIDRVRSLETENAGLRLRITESEEVVSREVSGIKAAYEAELGDARKTLDSVAKERARLQLELSKVREEFKELKARNTKKEG
For the molecule B3, the binding result in data set [1] was “binds”.

B4: His-tagged lamin A/C 1-125 fragment, L35V (domain or fragment, human, UniProt P02545 1-125, looked up)
chain: METPSQRRATRSGAQASSTPLSPTRITRLQEKEDVQELNDRLAVYIDRVRSLETENAGLRLRITESEEVVSREVSGIKAAYEAELGDARKTLDSVAKERARLQLELSKVREEFKELKARNTKKEG
Take B4: in data set [1], the binding result was “binds”.

B5: His-tagged lamin A/C 1-125 fragment, L59R (domain or fragment, human, UniProt P02545 1-125, looked up)
chain: METPSQRRATRSGAQASSTPLSPTRITRLQEKEDLQELNDRLAVYIDRVRSLETENAGRRLRITESEEVVSREVSGIKAAYEAELGDARKTLDSVAKERARLQLELSKVREEFKELKARNTKKEG
With B5, the binding result in data set [1] is recorded as “binds”.

B6: His-tagged lamin A/C 1-125 fragment, wild type (domain or fragment, human, UniProt P02545 1-125, looked up)
chain: METPSQRRATRSGAQASSTPLSPTRITRLQEKEDLQELNDRLAVYIDRVRSLETENAGLRLRITESEEVVSREVSGIKAAYEAELGDARKTLDSVAKERARLQLELSKVREEFKELKARNTKKEG
For B6, the binding result in data set [1], in data set [4] and in data set [5] was “binds” in each case.

B7: His-tagged lamin A/C 1-300 fragment, wild type (domain or fragment, human, UniProt P02545 1-300, looked up)
chain: METPSQRRATRSGAQASSTPLSPTRITRLQEKEDLQELNDRLAVYIDRVRSLETENAGLRLRITESEEVVSREVSGIKAAYEAELGDARKTLDSVAKERARLQLELSKVREEFKELKARNTKKEGDLIAAQARLKDLEALLNSKEAALSTALSEKRTLEGELHDLRGQVAKLEAALGEAKKQLQDEMLRRVDAENRLQTMKEELDFQKNIYSEELRETKRRHETRLVEIDNGKQREFESRLADALQELRAQHEDQVEQYKKELEKTYSAKLDNARQSAERNSNLVGAAHEELQQSRIRID
As to B7, the “stoichiometry N” value in data set [6] was 2.

B8: His-tagged lamin A/C 1-300 fragment, L35V (domain or fragment, human, UniProt P02545 1-300, looked up)
chain: METPSQRRATRSGAQASSTPLSPTRITRLQEKEDVQELNDRLAVYIDRVRSLETENAGLRLRITESEEVVSREVSGIKAAYEAELGDARKTLDSVAKERARLQLELSKVREEFKELKARNTKKEGDLIAAQARLKDLEALLNSKEAALSTALSEKRTLEGELHDLRGQVAKLEAALGEAKKQLQDEMLRRVDAENRLQTMKEELDFQKNIYSEELRETKRRHETRLVEIDNGKQREFESRLADALQELRAQHEDQVEQYKKELEKTYSAKLDNARQSAERNSNLVGAAHEELQQSRIRID
Turning to B8, the “stoichiometry N” value in data set [6] was 2.

B9: His-tagged lamin A/C 1-300 fragment, Y45C (domain or fragment, human, UniProt P02545 1-300, looked up)
chain: METPSQRRATRSGAQASSTPLSPTRITRLQEKEDLQELNDRLAVCIDRVRSLETENAGLRLRITESEEVVSREVSGIKAAYEAELGDARKTLDSVAKERARLQLELSKVREEFKELKARNTKKEGDLIAAQARLKDLEALLNSKEAALSTALSEKRTLEGELHDLRGQVAKLEAALGEAKKQLQDEMLRRVDAENRLQTMKEELDFQKNIYSEELRETKRRHETRLVEIDNGKQREFESRLADALQELRAQHEDQVEQYKKELEKTYSAKLDNARQSAERNSNLVGAAHEELQQSRIRID
As for B9, the “stoichiometry N” value in data set [6] amounted to 2.

B10: His-tagged lamin A/C 1-300 fragment, L59R (domain or fragment, human, UniProt P02545 1-300, looked up)
chain: METPSQRRATRSGAQASSTPLSPTRITRLQEKEDLQELNDRLAVYIDRVRSLETENAGRRLRITESEEVVSREVSGIKAAYEAELGDARKTLDSVAKERARLQLELSKVREEFKELKARNTKKEGDLIAAQARLKDLEALLNSKEAALSTALSEKRTLEGELHDLRGQVAKLEAALGEAKKQLQDEMLRRVDAENRLQTMKEELDFQKNIYSEELRETKRRHETRLVEIDNGKQREFESRLADALQELRAQHEDQVEQYKKELEKTYSAKLDNARQSAERNSNLVGAAHEELQQSRIRID
On to B10, for which the “stoichiometry N” value in data set [6] came out at 2.

B11: His-tagged lamin A/C 1-300 fragment, I63S (domain or fragment, human, UniProt P02545 1-300, looked up)
chain: METPSQRRATRSGAQASSTPLSPTRITRLQEKEDLQELNDRLAVYIDRVRSLETENAGLRLRSTESEEVVSREVSGIKAAYEAELGDARKTLDSVAKERARLQLELSKVREEFKELKARNTKKEGDLIAAQARLKDLEALLNSKEAALSTALSEKRTLEGELHDLRGQVAKLEAALGEAKKQLQDEMLRRVDAENRLQTMKEELDFQKNIYSEELRETKRRHETRLVEIDNGKQREFESRLADALQELRAQHEDQVEQYKKELEKTYSAKLDNARQSAERNSNLVGAAHEELQQSRIRID
Take B11: the “stoichiometry N” value in data set [6] is 2.
